{"source": "patent US12043671B2", "about": "“Antibodies targeting an amphiregulin-derived cell surface neo-epitope” (Gundersen Lutheran Medical Foundation, Inc., priority 2021, dated 2024)", "key": {"[1]": {"system": "MCF7 breast cancer cells", "assay": "MTT cytotoxicity assay", "details": "MCF7, 1.56-200 nM, 72 h", "description": "(§1) The cells were seeded at a density of 5000 cells/well in 96-well plates. Approximately 24 h after cell seeding, the cells were treated with varying doses (1.56, 3.125, 6.25, 12.5, 25, 50, 100 and 200 nM) of MMAE, 1A3 and 1A3-VC-PAB-MMAE. Untreated cells were used as control. After incubating for 72 h, the medium was aspirated and 50 μL of serum-free media and 50 μL of MTT solution (5 mg/mL solution in PBS) was added into each well; the cells were then incubated for 3 h at 37° C. The formazan crystals formed were dissolved with 4 mM HCl, 0.1% NP40 in isopropanol. The absorbance was measured at 590 nm using VersaMax Microplate Reader (Molecular Devices LLC, San Jose, California, USA). The assays were performed in triplicate."}, "[2]": {"system": "MCF-7 cells", "assay": "Tubulin staining (microtubule integrity)", "assay_type": "cell-based, human", "details": "48 h treatment", "procedure": "FIGS. 4A-4E. In vitro 1A3-MMAE cytotoxicity in MCF-7 (FIG. 4A) and MCF-7F (FIG. 4B) cells measured by MTT assay after treatment with 1A3-MMAE, 1A3 or MMAE. FIG. 4C: Clonogenic growth of MCF-7 or MCF-7F cells after exposure to 1A3-MMAE and replating. FIG. 4D: The quantification of clonogenic growth assays in FIG. 4C. (FIG. 4E). Tubulin staining of MCF-7 cells after 48 h treatment with MMAE, 1A3, 1A3-MMAE (40× magnification)."}, "[3]": {"system": "MCF7-F (fulvestrant-resistant MCF7) breast cancer cells", "assay": "MTT cytotoxicity assay", "details": "1.56-200 nM, 72 h", "description": "as §1"}, "[4]": {"system": "MCF7 cells", "assay": "Internalization and intracellular localization of 1A3-pHrodo, live-cell imaging", "assay_type": "cell-based, human", "procedure": "In order to study internalization, 1A3 was conjugated with pHrodo iFL Red dye using pHrodo iFL Red Microscale Protein Labeling Kit (P36014, Thermo Fisher Scientific). MCF7 cells were seeded in 12 mm Nunc Glass Bottom Dish, at a density of 1 ×10^5 cells/dish. After allowing the cells to attach overnight, the cells were incubated for 60 min with […] Hoechst dye for nuclei staining and LysoTracker® Green DND-26 (Thermo Fisher Scientific) for lysosomal labeling. The cells were then incubated with 1A3-pHrodo (2 μg/mL) for 20 min at 37° C. After washing the wells with PBS, the cells were supplemented with 1× live-cell imaging solution (Molecular probes, Thermo Fisher Scientific). Fluorescence images were acquired at 30 min intervals for 2.5 h with the Olympus 1×71 inverted fluorescence microscope (Olympus, Shinjuku, Tokyo, Japan). TAPI-2 (20 μM)—pre-treatment was performed overnight, with DMSO serving as a control."}, "[5]": {"target": "T1, peptide representing the neo-epitope of the ADAM17-cleavage product of human AREG (Homo sapiens, UniProt P15514)", "T1 construct": "host or cells: synthetic peptide", "assay": "ELISA of rabbit IgG candidates against peptides representing cleaved and full length AREG", "assay_type": "binding", "details": "IgG format; cleaved vs uncleaved AREG peptide", "text": "FIGS. 1A-1C. Isolation of antibodies that selectively recognize a peptide representing cleaved AREG. FIG. 1A: Schematic representation of the AREG cleavage and EGFR activation process, one consequence of which is the internalization of the small transmembrane fragment that remains cell-associated after TACE/ADAM17-mediated cleavage. FIG. 1B: Schematic representation of phage panning strategy using a peptide representing the cleaved AREG neo-epitope adhered to the well and a peptide representing the non-cleaved AREG region in the liquid phase.\nRabbit monoclonal IgG antibodies specific to cleaved-AREG were identified in contracted screening (Oak Biosciences Inc., Sunnyvale, CA, USA) using a recombinant Rabbit naïve phage display library (scFv format, VK-linker-VH) screening platform after four rounds of panning and ELISA validation. For panning, phage was selected against a peptide modeling the ADAM17-cleaved cell-associated epitope of AREG,^12 represented by the N-terminal region of THSMIDSSLSKI (SEQ ID NO: 2), and counter-selected against a peptide spanning this region (SMKTHSMIDSSLSKIAC; SEQ ID NO: 9), representing uncleaved AREG. […] GMF-1A3, referred to hereafter as simply “1A3”, was the antibody chosen for further characterization in this Example."}}, "note": "Non-standard residues stand in square brackets, D forms with d. Residues, ends and D or L forms follow the SMILES beside them. *: point of attachment. Dolaproine = CO[C@@H]([C@@H]1CCCN1)[C@@H](C)C(=O)O; Dil = CC[C@H](C)[C@H](NC)[C@@H](CC(=O)O)OC; X1 = C[C@@H](N*)[C@@H](O)c1ccccc1; NMeV = CN[C@H](C(=O)O)C(C)C"}
{"molecule": "CC[C@H](C)[C@@H]([C@@H](CC(=O)N1CCC[C@H]1[C@H](OC)[C@@H](C)C(=O)N[C@H](C)[C@@H](O)c1ccccc1)OC)N(C)C(=O)[C@@H](NC(=O)[C@@H](NC)C(C)C)C(C)C", "note": "[MMAE, monomethyl auristatin E, reference compound] (H-[NMeV]V[Dil][Dolaproine]-X1)", "values": [{"measurement": "cytotoxicity by MTT assay", "setting": "[1]", "value": "potently killed the cells"}, {"measurement": "tubulin disruption (microtubule integrity)", "setting": "[2]", "value": "exhibited tubulin disruption"}, {"measurement": "cytotoxicity by MTT assay", "setting": "[3]", "value": "potently killed the cells"}]}
{"molecule": "1A3-pHrodo (conjugate) VH: QSVKESEGRLVTPGTPLRLTCTVAGYSLSRYHMCWVRQAPGKGLEWIGMIGGSGRTDYASWAKGRFTISKTSTTVDLKITSPTTEDTATYFCSTVYTDSDGDFWGPGTLVTVSS VL: AELDMTQTPSSKSVPVGGTVTINCQASESVYSNDRLAWFQQKPGQPPKLLIYYASTLASGVPSRFKGSGSGTQFTLTISDLECADAATYYCQSCYDMSSYGVAFGGGTELEIL", "values": [{"measurement": "time of treatment after which red fluorescence (presence in acidic endosomes) was evident", "setting": "[4]; 1A3-pHrodo 2 μg/mL", "value": 30, "unit": "min"}, {"measurement": "fluorescence development after pretreatment with ADAM17 inhibitor TAPI-2", "setting": "[4]; TAPI-2 20 μM overnight pre-treatment", "value": "prevented the development of fluorescence"}]}
{"molecule": "GMF-3A3: Rabbit monoclonal IgG specific to cleaved AREG; VH SEQ ID NO: 5, VL SEQ ID NO: 6 (antibody, V domains shown, 3A3 antibody, Heavy chain; 3A3 antibody, Light chain) VH: QQQLVESGGRLVTPGTPLTLTYTVSGFSLSDYHMSWVRQAPGKGLQWIATISNRGNTYYASWAKGRFTISKTSTTVDLKITSPTTEDTATYFCARDNVHGDGVLVFYLWGPGTLVTVSS VL: AELVMTQTPASVSEPVGGTVTIKCQASQSIGTNLAWYQQKPGQPPKRLIYKASTLASGVSSRFKGSGSGTEFTLTISDLECADAATYYCQGYYSGDSNAFGGGTEVVVK", "values": [{"measurement": "selectivity for cleaved AREG by ELISA", "setting": "[5]", "value": "selectivity for cleaved AREG was confirmed"}]}
{"molecule": "GMF-3E4: Rabbit monoclonal IgG specific to cleaved AREG; VH SEQ ID NO: 7, VL SEQ ID NO: 8 (antibody, V domains shown, 3E4 antibody, Heavy chain; 3E4 antibody, Light chain) VH: QSVKESEGRLVTPGTPLTLTCTVSGFSLSDYWMSWVRQAPGKGLEWIGIAGYSDNTYYASRAKGRFTISKTSTTVVLKITRPTTEDTATYFCVRDLYGVYSSGTTLWGPGTLVTVSS VL: AELVMTQTPSPVSAAVGGTVTISCQSSQSVYNNNRLAWFQQKPGQPPKLLIYYASTLASGVSSRFKGSGSGTQFTLIISDVVCDDAATYYCQGYYSGGITGFGGGTEVVVK", "values": [{"measurement": "selectivity for cleaved AREG by ELISA", "setting": "[5]", "value": "selectivity for cleaved AREG was confirmed"}]}
